In patent US20250249077A1, “NAMPT FOR WOUND-HEALING AND STIMULATING HAIR GROWTH AND/OR REGROWTH” (Innovative Surgical Regeneration Holdings, LLC, priority 2022, published 2025):
“Also recorded” adds a separate entry of the source.

Columns and labels:
nondiabetic wounds = assay: Splinted full thickness excisional wound model, nondiabetic (wildtype) mice; type: in vivo; details: versus control hydrogel
Description: (§1) Diabetic, aged diabetic, and nondiabetic mice were purchased from JAX labs. Bilateral, symmetric full thickness wounds (which recapitulate complete skin tissue loss) were generated on the murine dorsum using a biopsy punch; wounds were treated with the disclosed therapeutic or the control vehicle.
(§2) NAMPT hydrogel was administered on wounds, control hydrogel served as control.

diabetic wounds [1] = assay: Single-cell RNA sequencing of NAMPT treated versus control diabetic wounds; type: in vivo, mice
Source text: Studies including single-cell RNA sequencing performed by the authors have elucidated the mechanism of action of the disclosed novel treatment on complete skin regeneration and prevention of scarring.
We performed gene ontology (GO) analysis on differentially expressed genes between the fibroblast clusters (clusters #0, #5, #10, and #12) to determine whether specific functions could be assigned to the different fibroblast subpopulations (FIG. 2A-E). […] Next, we performed gene ontology analysis on differentially expressed genes between NAMPT treated versus control Cluster #0 fibroblasts.
We utilized the CellChat package to infer cell-cell communication in NAMPT treated diabetic wounds versus control diabetic wounds.
Impaired cellular proliferation in diabetic wounds leads to delayed granulation tissue formation and delayed reepithelialization. We utilized the Tricycle package40 to determine the impact of NAMPT on cell cycle of diabetic wounds.

hair follicles = assay: Hair growth after intradermal injection of NAMPT in the skin of mice; type: in vivo
Source text: The mean number of hair follicles per field in the NAMiPT group is 33.93. The mean number of hair follicles per field in the control group is 27.47. The difference between the number of hair follicles per field between the NAMPT group and control group is statistically significant (p-value 0.0097 by unpaired t-test (GraphPad Prism 9).

diabetic wounds [2] = assay: Splinted full thickness excisional wound model, diabetic db/db mice; type: in vivo
Description: as §1, §2

[3] = pseudotime lineage analysis, relative to control wounds

B1: NAMPT: Nicotinamide phosphoribosyltransferase protein, rate-limiting enzyme of the salvage NAD synthesis pathway; human sequence SEQ ID NO: 1; recombinant (protein, listed as Homo sapiens)
chain: MNPAAEAEFNILLATDSYKVTHYKQYPPNTSKVYSYFECREKKTENSKLRKVKYEETVFYGLQYILNKYLKGKVVTKEKIQEAKDVYKEHFQDDVFNEKGWNYILEKYDGHLPIEIKAVPEGFVIPRGNVLFTVENTDPECYWLTNWIETILVQSWYPITVATNSREQKKILAKYLLETSGNLDGLEYKLHDFGYRGVSSQETAGIGASAHLVNFKGTDTVAGLALIKKYYGTKDPVPGYSVPAAEHSTITAWGKDHEKDAFEHIVTQFSSVPVSVVSDSYDIYNACEKIWGEDLRHLIVSRSTQAPLIIRPDSGNPLDTVLKVLEILGKKFPVTENSKGYKLLPPYLRVIQGDGVDINTLQEIVEGMKQKMWSIENIAFGSGGGLLQKLTRDLLNCSFKCSYVVTNGLGINVFKDPVADPNKRSKKGRLSLHRTPAGNFVTLEEGKGDLEEYGQDLLHTVFKNGKVTKSYSFDEIRKNAQLNIELEAAHH
For B1, the skin regeneration (nondiabetic wounds) was “sufficient to regenerate all tissues of the skin”, the Wnt-Fzd ligand-receptor interactions (diabetic wounds [1]; CellChat analysis) was “increased diversity, number, and strength” and the “gene expression for collagens Col1a1, Col1a2, Col3a1, Col5a2, Col6a1” value (diabetic wounds [1]; Cluster #0 fibroblasts, treated vs control) was “significantly increased”. For the same molecule, the “epidermal stem cell markers Krt5, Krt14, Krt15, Trp63, Itgb1, Itga6” value (diabetic wounds [1]; Cluster #1 undifferentiated epidermal cells, compared to controls) was “significantly higher”, the “KEGG oxidative phosphorylation, fatty acid metabolism, TCA cycle, mTOR signaling and pyruvate metabolism pathways” value (diabetic wounds [1]; KEGG pathway analysis) was “significantly enhances” and the “proportion of cells in the S phase, G2/M phase, and M phase” value (diabetic wounds [1]; Tricycle cell cycle analysis, compared to controls) was “increases”. The Hgf signaling (diabetic wounds [1]; epidermal stem cell populations) was “promoted”, the “Krt79+ and Krt6a/Krt6b+ cells” value (diabetic wounds [1]; pseudotime lineage analysis, relative to control treated wounds) was “enriched” and the “Krt77+ cells” value (diabetic wounds [1]; [3]) was “increased”. The “Pparg+/Fasn+ cells” value (diabetic wounds [1]; [3]) was “enriched”, the “immune pathways (MHC-II, CD6, ALCAM, VISTA, MHC-I, CD80)” value (diabetic wounds [1]; treated diabetic wounds) was “upregulated” and the “pro-inflammatory pathways, including TNF and IL1” value (diabetic wounds [1]; treated diabetic wounds) was “activation”. For the same molecule, the “mean number of hair follicles per field” value (hair follicles; 15 fields at 200× magnification, counted manually, unblinded) was 33.93, the “Difference between means (B − A) ± SEM, hair follicles per field” value (hair follicles; NAMPT group minus control group, unpaired t test) was 6.467 ± 2.329 and the “hair follicles, histological analysis versus control” value (hair follicles; NAMPT treated mice skin versus control) was “significant increase; also recorded: increased hair follicles”. For the same molecule, the hair growth (hair follicles; intradermal injection every 48 hours, compared to control) was “promoted hair growth visibly by 10 and 14 days”, the skin regeneration (diabetic wounds [2]; diabetic wounds, versus control hydrogel) was “sufficient to regenerate all tissues of the skin” and the “percentage of area staining positive for Keratin15” value (diabetic wounds [2]; immunohistochemistry, diabetic wounds vs control, n=3, p=0.0166) was “significantly increases”. The “percentage of area staining positive for b-catenin” value (diabetic wounds [2]; immunohistochemistry, diabetic wounds vs control, n=3, p=0.0332) was “significantly increases”.
